For series [1], the system named is MK2 41-400 (unphosphorylated).
Series [2] has as its system MK2 41-364 (unphosphorylated, constitutively active).

Among the data in patent US7167802 are Vmax of the MK2 construct after activation by p38 (no activity without p38) and Vmax of the MK2 construct after activation by p38 (0.076 without p38) values, retold here.

MK2 41-400 (unphosphorylated), sequence (chain, as listed by the source): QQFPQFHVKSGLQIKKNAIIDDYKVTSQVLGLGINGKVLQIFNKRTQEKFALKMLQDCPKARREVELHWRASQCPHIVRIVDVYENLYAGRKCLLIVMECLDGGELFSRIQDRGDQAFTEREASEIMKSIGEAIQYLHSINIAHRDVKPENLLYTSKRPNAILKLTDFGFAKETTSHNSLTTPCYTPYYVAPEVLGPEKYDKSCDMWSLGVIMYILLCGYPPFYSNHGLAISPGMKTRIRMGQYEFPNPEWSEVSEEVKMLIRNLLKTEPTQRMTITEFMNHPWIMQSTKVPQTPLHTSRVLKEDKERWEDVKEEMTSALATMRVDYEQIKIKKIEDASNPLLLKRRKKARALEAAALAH

Consider Activated p38 MAP kinase, for which, in series [1], the Vmax of the MK2 construct after activation by p38 (no activity without p38) came to 8.9 µmol/min/mg. For the same substance, the Vmax of the MK2 construct after activation by p38 (0.076 without p38) in series [2] was found to be 11 µmol/min/mg.
